B1: CPEB3 Ribozyme (parent)
chain: GGGGGCCACAGCAGAAGCGUUCACGUCGCGGCCCCUGUCAGAUUCUGGUGAAUCUGCGAAUUCUGCUGU

Variants of: B1
Assay: self-cleavage, relative activity (ratio to wild type); higher = more cleavage; co-transcriptional
GGGGGCCACACCAGAAGGGUUCACGUCGCGGCCCCUGUCAGAUUCUGGUGAAUCUGCGAAUUCUGCUGU gave a self-cleavage of 0.0784.
With GGGGGCCACAACAGAAGCGAUCACGUCGCGGCCCCUGUCAGAUUCUGGUGAAUCUGCGAAUUCUGCUGU the self-cleavage was 0.157.
Variant GGGGGCCACACCGGAAGCGUUCACGUCGCGGCCCCUGUCAGAUUCUGGUGAAUCUGCGAAUUCUGCUGU has a self-cleavage of 0.558.
With GGGGGCCACACCCGAAGCGUUCACGUCGCGGCCCCUGUCAGAUUCUGGUGAAUCUGCGAAUUCUGCUGU the self-cleavage was 0.175.
With GGGGGCCACACCUGAAGCGUUCACGUCGCGGCCCCUGUCAGAUUCUGGUGAAUCUGCGAAUUCUGCUGU the self-cleavage was 0.209.
For GGGGGCCACACCAGAAGCGUUCACGUCGCGGCCCCUGUCAUAUUCUGGUGAAUCUGCGAAUUCUGCUGU, the self-cleavage was 0.238.
Variant GGGGGCCACACCAGAAGCGUUCACGUCGCGGCCCCUGUCACAUUCUGGUGAAUCUGCGAAUUCUGCUGU has a self-cleavage of 0.257.
In the case of GGGGGCCACACCAGAAGCGUUCCCGUCGCGGCCCCUGUCAGAUUCUGGUGAAUCUGCGAAUUCUGCUGU, the self-cleavage is reported as 0.672.
Work on GGGGGCCACACCAGAAGCGUUCGCGUCGCGGCCCCUGUCAGAUUCUGGUGAAUCUGCGAAUUCUGCUGU yielded a self-cleavage of 0.626.
Work on GGGGGCCACAACAGAAGCGUUCACGGCGCGGCCCCUGUCAGAUUCUGGUGAAUCUGCGAAUUCUGCUGU yielded a self-cleavage of 0.734.
Work on GGGGGCCACAACAGAAGCGUUCACGCCGCGGCCCCUGUCAGAUUCUGGUGAAUCUGCGAAUUCUGCUGU yielded a self-cleavage of 0.863.
Work on GGGGGCCACACCAGAAGCAUUCACGUCGCGGCCCCUGUCAGAUUCUGGUGAAUCUGCGAAUUCUGCUGU yielded a self-cleavage of 0.0742.
Variant GGGGGCCACACCAGAAGCUUUCACGUCGCGGCCCCUGUCAGAUUCUGGUGAAUCUGCGAAUUCUGCUGU has a self-cleavage of 0.158.
Work on GGGGGCCACACCAGAAGCGUUCAGGUCGCGGCCCCUGUCAGAUUCUGGUGAAUCUGCGAAUUCUGCUGU yielded a self-cleavage of 0.114.
With GGGGGCCACAACAGAAGCGUUCACGUCGCGGCCCCUGUCAGAGUCUGGUGAAUCUGCGAAUUCUGCUGU the self-cleavage was 0.4.
With GGGGGCCACAACAGAAGCGUUCACGUCGCGGCCCCUGUCAGACUCUGGUGAAUCUGCGAAUUCUGCUGU the self-cleavage was 0.658.
Work on GGGGGCCACAACAGAAGCGUUCACGUCGCGGCCCCUGUCAGAAUCUGGUGAAUCUGCGAAUUCUGCUGU yielded a self-cleavage of 0.442.
Variant GGGGGCCACACCAGAAGCGUUCACGUCGCGGCCCCUGUCAGAUUCUGGUGAAGCUGCGAAUUCUGCUGU has a self-cleavage of 0.415.
Work on GGGGGCCACACCAGAAGCGUUCACGUCGCGGCCCCUGUCAGAUUCUGGUGAAUCUGCGAAUUCUGCUGA yielded a self-cleavage of 0.921.
In the case of GGGGGCCACACCAGAAGCGUUCACGUCGCGGCCCCUGUCAGAUUCUGGUGAAUCUGCGAAUUCUGCUGC, the self-cleavage is reported as 1.01.
Variant GGGGGCCACACCAGAAGCGUUCACGUCGCGGCCCCUGUCAGAUCCUGGUGAAUCUGCGAAUUCUGCUGU has a self-cleavage of 0.459.
Variant GGGGGCCACACCAGAAGCGUUCACGUCGCGGCCCCUGUCAGAUGCUGGUGAAUCUGCGAAUUCUGCUGU has a self-cleavage of 0.662.
Variant GGGGGCCACACCAGAAGCGUUCACGUCGCGGCCCCUGUCAGCUUCUGGUGAAUCUGCGAAUUCUGCUGU has a self-cleavage of 0.151.
GGGGGCCACACCAGAAGCGUUCACGUCGCGGCCCCUGUCAGAUUCUGGUGAAUCGGCGAAUUCUGCUGU gave a self-cleavage of 0.165.
With GGGGGCCACACCAGAAGCGUUCACGUCGCGGCCCCUGUCAGAUUCUGGUGAAUCAGCGAAUUCUGCUGU the self-cleavage was 0.271.
GGGGGCCACACCAGAAGCGUUCACGUCGCGGCCCCUGUCAGAUUCUGGUGAAUCUGCGAAUUCUGUUGU gave a self-cleavage of 0.939.
With GGGGGCCACACCAGAAGCGUUCACGUCGCGGCCCCUGUCAGAUUCUGGUGAAUCUGCGAAUUCUGGUGU the self-cleavage was 0.943.
Variant GGGGGCCACAACAGAAGCGUUCACGUCGCGGCCCCUGUCAGAUUCUGGUGAAUCUGCGAAUGCUGCUGU has a self-cleavage of 0.331.
Variant GGGGGCCACACCAGAAGCGUUCACGUCGCGGCCCCUGCCAGAUUCUGGUGAAUCUGCGAAUUCUGCUGU has a self-cleavage of 0.7.
With GGGGGCCACACCAGAAGCGUACACGUCGCGGCCCCUGUCAGAUUCUGGUGAAUCUGCGAAUUCUGCUGU the self-cleavage was 0.827.
Work on GGGGGCCACACCAGAAGCGUUCACGUCGCGGCCCCUGUCAGAUUCUGGUGAAUCUGAGAAUUCUGCUGU yielded a self-cleavage of 0.252.
Work on GGGGGCCACACCAGAAGCGUUCACGUCGCGGCCCCUGUCAGAGUCUGGUGAAUCUGCGAAUUCUGCUGU yielded a self-cleavage of 0.279.
In the case of GGGGGCCACAACAGAAGCGUUCACGUCGCGGCCCCUGUCAGAUUCUGGUGAAACUGCGAAUUCUGCUGU, the self-cleavage is reported as 0.533.
For GGGGGCCACACGAGAAGCGUUCACGUCGCGGCCCCUGUCAGAUUCUGGUGAAUCUGCGAAUUCUGCUGU, the self-cleavage was 0.211.
In the case of GGGGGCCACACUAGAAGCGUUCACGUCGCGGCCCCUGUCAGAUUCUGGUGAAUCUGCGAAUUCUGCUGU, the self-cleavage is reported as 0.452.
With GGGGGCCACAACAGAAGCGUUCACGUCGCGGCCCCUGUCAGAUUCUGGUGAAUCUCCGAAUUCUGCUGU the self-cleavage was 0.437.
GGGGGCCACACCAGAAGCGUUCACGUCGCGGCCCCUUUCAGAUUCUGGUGAAUCUGCGAAUUCUGCUGU gave a self-cleavage of 0.165.
GGGGGCCACACCAGAAGCGUUCACGUCGCGGCCCCUGUCAGAUUCUGGUGAAUCUGCGAACUCUGCUGU showed a self-cleavage of 0.203.
For GGGGGCCACACCAGAAACGUUCACGUCGCGGCCCCUGUCAGAUUCUGGUGAAUCUGCGAAUUCUGCUGU, the self-cleavage was 0.103.

From the RNAGym collection of RNA variant scans (doi:10.7554/elife.80360)
